Sequences and labels used below:
B1: Sds3 (natural protein, S. cerevisiae, UniProt P40505 1-327, looked up)
chain: MAIQKVSNKDLSRKDKRRFNIESKVNKIYQNFYSERDNQYKDRLTALQTDLTSLHQGDNGQYARQVRDLEEERDLELVRLRLFEEYRVSRSGIEFQEDIEKAKAEHEKLIKLCKERLYSSIEQKIKKLQEERLLMDVANVHSYAMNYSRPQYQKNTRSHTVSGWDSSSNEYGRDTANESATDTGAGNDRRTLRRRNASKDTRGNNNNQDESDFQTGNGSGSNGHGSRQGSQFPHFNNLTYKSGMNSDSDFLQGINEGTDLYAFLFGEKNPKDNANGNEKKKNRGAQRYSTKTAPPLQSLKPDEVTEDISLIRELTGQPPAPFRLRSD
notes: Sds3, subunit of the S. cerevisiae Rpd3L complex; endogenous subunit
B5: Rpd3 (enzyme, S. cerevisiae, UniProt P32561 1-433, looked up)
chain: MVYEATPFDPITVKPSDKRRVAYFYDADVGNYAYGAGHPMKPHRIRMAHSLIMNYGLYKKMEIYRAKPATKQEMCQFHTDEYIDFLSRVTPDNLEMFKRESVKFNVGDDCPVFDGLYEYCSISGGGSMEGAARLNRGKCDVAVNYAGGLHHAKKSEASGFCYLNDIVLGIIELLRYHPRVLYIDIDVHHGDGVEEAFYTTDRVMTCSFHKYGEFFPGTGELRDIGVGAGKNYAVNVPLRDGIDDATYRSVFEPVIKKIMEWYQPSAVVLQCGGDSLSGDRLGCFNLSMEGHANCVNYVKSFGIPMMVVGGGGYTMRNVARTWCFETGLLNNVVLDKDLPYNEYYEYYGPDYKLSVRPSNMFNVNTPEYLDKVMTNIFANLENTKYAPSVQLNHTPRDAEDLGDVEEDSAEAKDTKGGSQYARDLHVEHDNEFY
notes: Rpd3, histone deacetylase, the catalytic subunit of the S. cerevisiae Rpd3L complex; endogenous subunit; Present in two copies in the Rpd3L complex, one in each lobe; also called Rpd3-I; Rpd3-II
B7: Dep1 (natural protein, S. cerevisiae, UniProt P31385 1-405, looked up)
chain: MSQQTPQESEQTTAKEQDLDQESVLSNIDFNTDLNHNLNLSEYCISSDAGTEKMDSDEEKSLANLPELKYAPKLSSLVKQETLTESLKRPHEDEKEAIDEAKKMKVPGENEDESKEEEKSQELEEAIDSKEKSTDARDEQGDEGDNEEENNEEDNENENEHTAPPALVMPSPIEMEEQRMTALKEITDIEYKFAQLRQKLYDNQLVRLQTELQMCLEGSHPELQVYYSKIAAIRDYKLHRAYQRQKYELSCINTETIATRTFIHQDFHKKVTDLRARLLNRTTQTWYDINKERRDMDIVIPDVNYHVPIKLDNKTLSCITGYASAAQLCYPGEPVAEDLACESIEYRYRANPVDKLEVIVDRMRLNNEISDLEGLRKYFHSFPGAPELNPLRDSEINDDFHQWAQ
notes: Dep1, subunit of the S. cerevisiae Rpd3L complex; endogenous subunit

The target of experiment [1] is T1, Sin3 (S. cerevisiae, UniProt P22579 1-1536).
T1 construct: Sin3, principal scaffolding subunit of the S. cerevisiae Rpd3L complex; endogenous subunit; Present in two copies in the Rpd3L complex, one in each lobe; also called Sin3-I; Sin3-II
T1 sequence (P22579 whole entry): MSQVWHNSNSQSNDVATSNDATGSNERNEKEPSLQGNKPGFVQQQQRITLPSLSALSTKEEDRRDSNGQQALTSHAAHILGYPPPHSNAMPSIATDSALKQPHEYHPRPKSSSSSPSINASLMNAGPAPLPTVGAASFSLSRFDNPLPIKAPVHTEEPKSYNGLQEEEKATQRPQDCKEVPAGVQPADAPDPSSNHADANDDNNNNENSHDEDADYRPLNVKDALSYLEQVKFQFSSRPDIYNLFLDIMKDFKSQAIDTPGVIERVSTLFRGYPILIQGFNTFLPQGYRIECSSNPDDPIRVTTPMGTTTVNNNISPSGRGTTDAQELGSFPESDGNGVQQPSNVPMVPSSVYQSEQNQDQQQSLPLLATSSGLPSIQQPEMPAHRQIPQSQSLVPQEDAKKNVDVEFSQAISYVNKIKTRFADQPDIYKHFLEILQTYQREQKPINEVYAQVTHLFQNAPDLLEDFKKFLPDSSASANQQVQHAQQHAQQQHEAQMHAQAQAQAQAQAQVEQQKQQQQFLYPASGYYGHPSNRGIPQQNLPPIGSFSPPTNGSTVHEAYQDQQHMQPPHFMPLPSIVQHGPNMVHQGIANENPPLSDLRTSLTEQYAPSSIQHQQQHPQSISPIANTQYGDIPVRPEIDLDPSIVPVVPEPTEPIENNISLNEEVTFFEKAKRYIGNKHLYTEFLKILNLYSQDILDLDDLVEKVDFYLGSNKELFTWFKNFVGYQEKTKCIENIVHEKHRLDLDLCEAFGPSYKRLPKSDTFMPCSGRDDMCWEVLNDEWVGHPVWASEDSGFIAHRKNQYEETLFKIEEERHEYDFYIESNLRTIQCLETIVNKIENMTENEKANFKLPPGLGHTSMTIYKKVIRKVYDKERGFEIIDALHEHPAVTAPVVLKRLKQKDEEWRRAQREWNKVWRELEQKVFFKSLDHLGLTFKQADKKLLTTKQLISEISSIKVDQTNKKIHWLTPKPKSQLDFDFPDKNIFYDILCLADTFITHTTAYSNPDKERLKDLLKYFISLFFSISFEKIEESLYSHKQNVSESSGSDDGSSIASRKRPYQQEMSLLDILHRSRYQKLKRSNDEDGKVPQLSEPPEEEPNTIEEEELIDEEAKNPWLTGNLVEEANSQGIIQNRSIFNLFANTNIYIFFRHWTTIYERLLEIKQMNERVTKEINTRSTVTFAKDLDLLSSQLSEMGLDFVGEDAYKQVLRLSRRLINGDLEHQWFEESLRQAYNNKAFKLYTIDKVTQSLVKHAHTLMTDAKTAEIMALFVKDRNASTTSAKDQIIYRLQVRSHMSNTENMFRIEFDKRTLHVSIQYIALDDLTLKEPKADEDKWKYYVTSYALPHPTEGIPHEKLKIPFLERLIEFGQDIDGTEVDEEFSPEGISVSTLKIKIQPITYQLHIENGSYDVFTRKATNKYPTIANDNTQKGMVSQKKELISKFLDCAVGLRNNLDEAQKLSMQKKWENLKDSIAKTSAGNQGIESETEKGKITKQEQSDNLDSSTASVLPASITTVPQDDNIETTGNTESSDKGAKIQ
As to the kind of experiment: cryo-EM structure; Rpd3L complex purified by TAP, crosslinked on ice with 1 mM BS3 for 15 min, graphene oxide coated grid; map at 3.5 Å, lobes I and II focus refined to 3.4 Å. To be noted: both partners purified.

For experiment [2], the target named is B5. The description is as above. To be noted: both partners purified.
The target of the experiment “Dep1” is B7. The experiment is described as above. The note with it: both partners purified.
The experiment “Sds3” concerns the target B1. The description is as above. The note with it: both partners purified.
In experiment [3] the target is T2, co-expressed complex of MBP-tagged human BRMS1 (residues 51-179) and His6-tagged mouse SDS3 (residues 43-234) (human | mouse, UniProt Q9HCU9 51-179; Q8BR65 43-234).
T2 construct: BRMS1, human, residues 51-179; SDS3, mouse, residues 43-234; The two chains were co-expressed and then combined with the separately expressed ARID4A R2 domain; also called SDS3, BRMS1; source: E. coli, co-expressed, purified (Ni-NTA, SEC)
T2 sequence (looked up) 1: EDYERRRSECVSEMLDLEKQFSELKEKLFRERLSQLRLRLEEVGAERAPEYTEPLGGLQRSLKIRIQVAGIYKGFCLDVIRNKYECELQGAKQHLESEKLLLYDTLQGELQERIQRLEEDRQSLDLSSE
T2 sequence (looked up) 2: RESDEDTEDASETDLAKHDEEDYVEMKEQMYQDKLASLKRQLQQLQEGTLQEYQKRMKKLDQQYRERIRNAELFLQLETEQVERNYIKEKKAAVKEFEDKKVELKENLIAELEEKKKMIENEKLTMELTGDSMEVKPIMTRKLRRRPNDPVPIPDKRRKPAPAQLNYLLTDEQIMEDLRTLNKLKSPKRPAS
As to the kind of experiment: SEC; Ni-NTA purified proteins on a Superdex 75 GL column in 25 mM MOPS pH 7.5, 150 mM NaCl, 1 mM TCEP; co-elution. The note with it: both partners purified. In general terms: Size exclusion chromatography separates by hydrodynamic size, large species first.

In experiment [4] the target is T1, Sin3. Put plainly: affinity purification with mass spectrometry; tandem affinity purification from S. cerevisiae lysate by the TAP tag on Rxt2 (IgG resin, TEV protease, calmodulin resin; washes with 500 to 750 mM KCl); the purified complex analysed by mass spectrometry. The note with it: partners not purified.
Experiment [5] deals with B5. The description is as above. The note with it: partners not purified.

On to B1, for which the binding result in the experiment with Sin3 [1] was “binds”.

B2: Pho23 (natural protein, S. cerevisiae, UniProt P50947 1-330, looked up)
chain: MSSPANLFPGLNDITDVLEEFPLATSRYLTLLHEIDAKCVHSMPNLNERIDKFLKKDFNKDHQTQVRLLNNINKIYEELMPSLEEKMHVSSIMLDNLDRLTSRLELAYEVAIKNTEIPRGLRLGVDNHPAMHLHHELMEKIESKSNSKSSQALKSESRREAMAANRRQGEHYSASTHQQDDSKNDANYGGSRHESQDHTGNNTNSRKRANAANTNNADPETKKRKRRVATTAVSPSTISTATAVNNGRIGTSTASRGVSSVGNSNNSRISRPKTNDYGEPLYCYCNQVAYGEMVGCDGADCELEWFHLPCIGLETLPKGKWYCDDCKKKL
notes: Pho23, subunit of the S. cerevisiae Rpd3L complex; endogenous subunit
As to B2, the binding result with Rpd3 [2] and with Dep1 was “binds” in each case.

B3: Sap30 (natural protein, S. cerevisiae, UniProt P38429 1-201, looked up)
chain: MARPVNTNAETESRGRPTQGGGYASNNNGSCNNNNGSNNNNNNNNNNNNNSNNSNNNNGPTSSGRTNGKQRLTAAQQQYIKNLIETHITDNHPDLRPKSHPMDFEEYTDAFLRRYKDHFQLDVPDNLTLQGYLLGSKLGAKTYSYKRNTQGQHDKRIHKRDLANVVRRHFDEHSIKETDCIPQFIYKVKNQKKKFKMEFRG
notes: Sap30, subunit of the S. cerevisiae Rpd3L complex; endogenous subunit
Consider B3, for which the binding result with Sin3 [1] and with Sds3 was “binds” each time.

B4: Rxt3 (natural protein, S. cerevisiae, UniProt Q07458 1-294, looked up)
chain: MSVSEQDPNRAYRETQSQIYKLQETLLNSARTKNKQEEGQESNTHSFPEQYMHYQNGRNSAYDLPNVSSQSVLAFTEKHYPNKLKNLGTLYYNRFKEGSFDEDSTSYSDRHSFPYNLYDNTLPPPFLPAIGIQNINNIATLKITYEDIQASFNNIESPRKRNNEIWGCDIYSDDSDPILVLRHCGFKIGAPSGGSFHKLRRTPVNVTNQDNVTGNLPLLEGTPFDLEVELLFLPTLQKYPSVKRFDITSREWGSEATVIHDGLSYGIYSIVIKQRLDRDKPHEPNGYIKNLKWT
notes: Rxt3, subunit of the S. cerevisiae Rpd3L complex; endogenous subunit
As for B4, the binding result with Sin3 [1] is on record as “binds”.

For B5, in the experiment with Sin3 [1], the binding result was “binds”.

B6: His6-tagged human ARID4A R2 domain (residues 1164-1230) (domain or fragment, UniProt P29374 1164-1230, looked up)
chain: SPRTYKWSFQLNELDNMNSTERISFLQEKLQEIRKYYMSLKSEVATIDRRRKRLKKKDREVSHAGAS
notes: ARID4A, human, R2 domain, residues 1164-1230; Construct in the pMCSG7 vector; source: E. coli, expressed separately, purified (Ni-NTA, SEC)
Take B6: the binding result in experiment [3] is on record as “binds”.

As for B7, the binding result in the experiment with Sin3 [1] and with Rpd3 [2] was “binds” in each case.

B8: Rxt2 with a TAP tag at the C-terminus (natural protein, S. cerevisiae)
chain: MTIRSSMKNNAELESKSVLANESNIISTFTRRIIKEKSGNYQVLKRSLDGKLIYPEATGISSNRGNKLLQRSEVVTRRDLNNSKPMIEQTVFYNGSEHRLLQTNIVTDSRRKRIKFTPDINVEPVLVGDENDIDGSEKEDENITDEYYGEEDDDDLSKLVNVKEILTPILSLGDIINHKTISRTFSSPILKNLALQIILMIEKEQMSVVRYSQFLEVFLGDHPEPIYESNLNLPSYNHNLTLPEDRGASDEDDINNKNNINEVNSNSLSTEAGHINNGMEEFGEEDPFFALPRLEQSNALLSLLPSSSGSASISTLTAAEQQQLNEEIESARQLSQIALQRNKEFIRNLQKIRKSVIKANRIRGRILNWSREYLGISDDDITIPVALRVVKRGLISATTNKTTNFEEEIENTMEDGVVDDNEPDEEANRA
notes: Rxt2, subunit of the S. cerevisiae Rpd3L complex; expressed from the tagged strain; not shown: TAP tag, C-terminal, kept
Regarding B8, the binding result in the experiment with Sin3 [4] and with Rpd3 [5] was “binds” throughout.

The record behind these values is PMC10224958, “Cryo-EM structure of the Saccharomyces cerevisiae Rpd3L histone deacetylase complex” (Nature Communications, 2023).
